Assay results taken from paper PMC5611513 (2017).

B1: TplEi (natural protein)
chain: CTSFSSSRSSSMDKTGWITHCFGRFLIDLPPDAVINAGYYLWGDRIEYLDDKPTELAARVDRLEQEWRTQRHKSKGNMFLRKIDFGNESVGLLSWSSEVASKTYLLDTYVTSKPTWHVYRWKGKVSVDREQHAVEISRALARNLRSRAPKEIPSEPGFCIDHAYIAGDSFQVERFGVGVTFPEHPGARFEFRSSTGAELNSLLERVDGFVQNMLSTFAGMETLRKGKHPVGSLPGEEYLVAGSDKGQRGYTFMWEVQGKEESLTEPNLTAGLAVLERSNENGKPPPPAFKSDKEALELWDTIVDSIRVRPTSSSPRGGNAGPSPAPKPATPGGQTLGDHYVYEEFLSSLKPKDSWLDDL

Legend:
Assay in all cases: ITC
[1] = target: G98A
[2] = target: I88A
[3] = target: L91A
[4] = target: B1

Row | Binder | Kd [1] [µM] | Kd [2] [µM] | Kd [3] [µM] | Ka [4] [M⁻¹]
1 | B1 | 1.31 | 4.8 | 3.7 | 
2 | Ac-DDLFASIGALWTWAWRGPKARQELLKAEQ-NH2 [B peptides (“L” peptide, TplE 82-108 plus EQ)] |  |  |  | 2.09e+06
3 | Ac-DDLFASIGALWTWAWRGPKARQELLKAEQVEVDD-NH2 [A peptides (“L” peptide, TplE 82-108 plus EQVEVDD)] |  |  |  | 7.98e+06
